Results reported in the DeepSol protein solubility set.

Experiment: soluble on expression in E. coli; label from the status in PepcDB or PDB records

Sequence	soluble on expression in E. coli
MGSDKIHHHHHHMDDGTRLGQADHAAGPRPPGVIFTMRYPSDVGFVWKTIALHRDLIARAFGGEARCILAYPQLSPTSAYQPRWSTAIQADFYDYSAENRQRLERVITDEAIRLVVFMSAQPADVDLGFLRGLGLRTVTSENNSYDHSLRQPFMKRLAKALIRRVLKRQVFDLHIANSQAQYDFLRGFAQLPASRLRAVRNGVDTDHFQPGERTGACSTLGLDPDRLWIMAASQARPEKRLERVLEVIRAVKDARPALPIGFFFVGEGENLAEWRQIALGLPDAETYRFFGRQNDLRPYYQAASVFIHGAFRESFGLVIAEAMASGLPVVATHAHGPAEIIAEGETGRLVGRDDWEGLGKAVIEYLDDAELRRTHGLAGRARCVALFSITRQAQEFADLLRPFLKDGAGAPY	not soluble
MSRLSSLLILVCIGALLVETFAAPDEPIIVRSKRQQCRCVKNPNGGLTCSCAKGPADGSSSSIGSGVQYDAPQSADIANQLTAMSQQTTGMSGARCGCIQIVIQGAPQYNCQCGDQSGNPLPTTTTMAPTTSSTTTTTTTTTQAPTTTSTTTTQSPVSYPQVPTQTQGSNGACNCIMISITSPQTAQYQCQCAQPQQQQQQQVQYDTYEYAPVQTTPTPMPTTQVPTTQAPTTQAPTMPTSSSPVQYADTAATQYPLTTTCVMYVNVPTTACSCLPQYDQCAQNVCCLKSKFRSYKKAEETQPSTLDVLMNVLQTIKTKLE	not soluble
MKATSEELAIFVSVVESGSFSRAAEQLGQANSAVSRAVKKLEMKLGVSLLNRTTRQLSLTEEGERYFRRVQSILQEMAAAESEIMETRNTPRGLLRIDAATPVVLHFLMPLIKPFRERYPEVTLSLVSSETIINLIERKVDVAIRAGTLTDSSLRARPLFNSYRKIIASPDYISRYGKPETIDDLKQHVCLGFTEPASLNTWPIACSDGQLHEVKYGLSSNSGETLKQLCLSGNGIACLSDYMIDKEIARGELVELMADKVLPVEMPFSAVYYSDRAVSTRIRAFIDFLSEHVKTAPGGVMPIS	not soluble
MEVYSKLRAPPSSRMILRLDGRGFHRLTESLDFDRPYDEAFRDLMIRTCLDLMEEFSPSLIYTFSDEINVLLDSVPFAGRVEKLDSVFSGFASSSFTRGALEAGFSPVKPVSFDCRVIPISSDIVPEYFRSRQDESWRNCLNSYAYWTLRREVGARRAAERLRGLKSDSLHDLLFERGVNISRVPAWQRRGVGVYRVPHRVRGYNPIRDEEVSAVRMRVKVDLELPLFTDEFFEGLMRLEHHHHHH	soluble
MGSDKIHHHHHHMALIHEIITSENIKGFYNAKNENVENTLGEKAFPPKQQLGLKLSFIKGAAGKPVTLKAAAFDTKVPLRDRMAVELIDEEMPFFKEAMLVKEADRQQLNMLAQTKNNELIDTILASIYNDQATLIAGAKARLEAMRMEVLSKGKIHIQSNGVMKDIDYGLAEDQTTKPDAKWDSAGTATPLKDIEKAIEKMAERGFVPEAIIMNSKTFSLIKNAESTLDVVKPMAPNGAAVTKRDLNTYLEDELQIKVILKDGMFVGDDGESRKYFPDGFATLVPNGNLGYTVFGTTPEQSDLLGGEATDANVSIVETGIAITTTKTTDPVNVQTKVSMIALPSFERLEEVHIINGLQDA	not soluble
SPRPPDDPGFGPHQRLEKLDSLLSDYDILSLSNIQQHSVRKRDLQTSTHVETLLTFSALKRHFKLYLTSSTERFSQNFKVVVVDGKNESEYTVKWQDFFTGHVVGEPDSRVLAHIRDDDVIIRINTDGAEYNIEPLWRFVNDTKDKRMLVYKSEDIKNVSRLQSPKVCGYLKVDNEELLPKGLVDREPPEGKT	soluble
MGSDKIHHHHHHMKFFDREKEIAEILHILNREPDDVYFIYGPINSGKTALINEIINNRLDKDKYVVFYFDLREIFISKYDDFIEVLFEEYEGNKKPVEIIKSLIKDVPSLCGIPAPKNTLEEILKKKTTKNVFRYITKVLMDIKKEGKQPILIIDELQKIGDMKINGFLIYELFNYFVSLTKHKHLCHVFCLSSDSLFIERVYNEAMLDGRAKYLLVDDFDKETALKFMDFLAKENNISLTNEDKELIYNYVGGKPKDIKYVVEESNFKDLKEVLDYLLNDEISKLDMFLEILDYSKPRVEVGNEVIEINKEDIIKALRLFKDKYEIPKKDIPTPVYVYLVKENILFLNPQKRILKPQSYLVWNAIKRLL	not soluble
MSLFLSNVILHQLRKNDNDELVVNYRAESLRNDTSTENLVAELHRVFNAKAGKGFGCFKSDSEFQLWLQEMRRGTLPFYEFSQQSAQRLKNELAKYPFADEGILVMAEYQSLATDYLFIGLLPLNQSLKVTEGLDISATDYLDINKMDIVARIDLSSYETDKESKRYLSYIKGRVGRKVADFFLDFLQADIGLDTKQQNQVLMQAVEDFCADAKFEKEEVISYKKQVYEYCNDQIKAGDEVRVQELSGELPPSNEGVNFFDFTREQGYQLEESFPADRSTVRKLTKYVGAGGGLNLSFDSLLLGERVFYDPETDTLTIKGTPPNLEHHHHHH	not soluble
MLPYMAYRYVKNKREKNQREMDSDLDSMVRSIVPDKTVICVPNVAAKLGEDSKEYIPGTLSIVEKSSGVFIEWKPSEDAETSWVMTSDDGNTEMVHARSPEEKQKCGARVAFSMDVNDLSSFRNDEPKRGSGGFPSIRLICRDGSSQVPLFFKNTTTAEFLDRLQGYITLRRSHRDSHLVIVVDQKSEALAKSVSMLDENGDILSRFMQNPYMTAMTGFSKITSFVQDQVIPSVLNDTDAVTQEEKIRLMRELRLAEEQMRVHSDAAGEFEVVTQLELPPRPEIYRELPVSKDLWNSFKLSNGSYDPMKLHHLKMNVFRGGLNAELRKEAWKCLLGYRQWHESDTDFQTRRAELAKQYENMKKQWMSVTEDQEKRFTKFVKRKSLVGEEIEND	not soluble
MSRNQIYITQEQFDFFCQTQRPYEGFVEGVGYAFVHRGFVNPHANRPTNPFRQTKGYVLPFKQQLIEVSPDLIANSLKCNKTTDTPQEAPERDSRYLGERFYTKDGRYVYIGTMSGGWVCYDRSGNRILEQLPEIIVYSSKEPGRSIIGTGKD	not soluble
MGSDKIHHHHHHMPTITAKIQIHVSDNQAESLKITTNAYRKACNWLSKHIFETKNLNQVNLNNLYYSDLRNQFRLKSQMAQSVMKTVIARYKSAKSNGHEWSLIDFKLAEYDLVWNRDYSLTKNQFSVNTLEGRLKLNYERKAMKKYFNSTWKFGTAKLVHKYKKWFLHIPMTKEYQTLDFADVNNIVGVDLGINFLATTYDSQSKTTFYNGNIVKHKRGKFKATRKQLQTRQTPSSRKKIKQIGSRENRYVTDVNHQITKALVEAYPRGTMFVLEDLTGVRSATEKVRVKNRYVSVSWAFYQFRQMLEYKAELNGQKVIVVDPKYTSQTCPKCGNIEKANRNKKLHTFKCKNCQYQSNDDRISAMNLHRKGIKHISVVTTGV	not soluble
MGSDKIHHHHHHMDKLQRISEAIKSKKKLVVMFSGGVDSTLLAKLAREVLGKNAVALTIDSPVIPRKEIEEAKNLANLIGIRHEFIELNELKSRHLIENPPDRCYLCRKLRDNIVKNWARENGFDVIADGLNFSDLQDYRPGVKASTEDGIWHPFIDFEVTKEEIREYSKKLGLPTWDKPAMACLCSRFPYGFGLNEERVRMVEKAENFLRELGFREVRVRFFPYKTAVVEVGRDEMELLMGKRTDIVLALQKIGFSFVTLDLEGFASGKLNRTIEGMSK	not soluble
MSLGTAVLDLMANGVDMLCWADPFFPDPVLPEHISQAVIKSMENGSASHYTMPIGNPELKEKIALKLQRYNNLTVEAQRNILITPGSDSGLLFAMMPFINNDDEVLIHSPSYPSNFLNVELLGGKPISVELKAENNFQIDIKDFENKITEKTKMVILTNPNNPTGTVLRRESLQAIADFIIAHDLILVVDQAFEDAIFDEIEFISIASLPGMWERTVSVFSFSKGMGLSGFRVGYLVADAQIVDVLFGCTVNVVGATNTSSQAGMIAALDEPSFMGEYTQIFERRRKVVFEMMNAIPGVCMVMPESGFLSWIDISKLGTSTFICDYLLQHAHVMVNSGVPYGQGGEGYIRLVHGCYKDDEKLYAVLTRIQQALMQLAKEGHHHHHH	not soluble
MSLQYESHSQLIIKSSDGGSSFDPSSLLMAAGVSGASGGTESQLVEAYIQSADMIKYLDETIGLREHYMSDKADMFSGLSSSHKQEDFYKFYLDHIEVSVDSASSVISLRTRAFDAEYAKIINQAIVDKAEEFINNINNDLAKSKLTFAKGEHEIVEQKLQQAKTEILSFQSKYNVLDPSAEGAAFQQIAFSLQATLAQKKAELSTMSTMMSNVAPEVINIKREIAALQKEVEKQKERISTAEGESEALSVSELMAQYSNLQVQLQLAIQAYSSSLITLENARVEAYQKLQHLVTVESPTLPDDNAYPTEGHHHHHH	soluble
MGSDKIHHHHHHMTQHVIEMREITKKFGDFVANDHINLNVRKGEIHALLGENGAGKSTLMNMLAGLLEPTSGEIVINDKPVQIDSPSKSAKLGIGMVHQHFMLVEAFTVAENIILGNEVVKNGCLDLNQASKDIKVLSEKYGLAINPSAKVSDISVGAQQRVEILKTLYRGADILIFDEPTAVLTPAEIKELMTIMKNLVKEGKSIILITHKLDEIRAVADRVTVIRRGKSIETVDVAGATSQDLAEMMVGRSVSFTTSKKAAEPKDVVLSIKNLEVDENRGVPAVKGLSLDVRAGEIVGIAGIDGNGQSELIQAITGLRKVKSGSIMIKNNEVTHLSSRKITELSVGHVPEDRHRDGLILDLSLAENTALQTYYKQPLSQNGILNYTKINDYARQLMKEFDVRGANELVPARGFSGGNQQKAIIAREVDRDPDLLIVSQPTRGLDVGAIEYIHKRLIKERDKGKAVLVVSFELDEILNLSDRIAVIHDGKIQGIVSPENTNKQELGILMAGGSIHKEEGHV	not soluble
KSIRLAKEKESQADYISTYVEWQYIDKNITQCFDKMTNMKLEVAWKAKKKDTVVQIHNQDFTVDLSTNTATAPQGQTFTVQRLVKA	soluble
TMLSFVTTDANIDHGHLQGALSAITNETFNRITVDGDTSTNDMVVVMASGLAENETLTPEHPDWANFYKALQLACEDLAKQIARDGEGATKLIEVEVTGAANDQEAGMVAKQIVGSDLVKTAIYGADANWGRIICAIGYSGCEVNQETIDIAIGPIVTLKQSEPTGFSEEEATAYLKEADPVKISVNLHIGNGTGKAWGCDLTYDYVRINAGYRT	soluble
MGSDKIHHHHHHLPKLREDFKMQNKSVFILGASGETGKVLLKEILGQNLFSKVTLIGRRKLTFEEEAYKNVNQEVVDFEKLDVYASAFQGHDVGFCCLGTTRSKAGAEGFVRVDRDYVLKSAELAKAGGCKHFNLLSSRGADKSSSFLYLQVKGEVEAKVEELKFDRLSVFRPGVLLCDRQESRPGEWLARKFFGSLPDSWASGYAVPVVTVVRAMLNNLVSPSSGQMELLENKAILHLGKDRDVPKL	soluble
MSLKEGKEFEYLFWVGSMGSYDNRSQKIAISFAKLLNHAGVSFAILGNKEKNSGDTPRRLGNEFLFQELAEKNISEFEKNDVKKIVTIDPHAYNLFKNEYPDFGFEGEVYHHTEVLAELVKNGKLRPQHPLHETITFHDSCYLGRYNEVYDPPREILKAIPGVQLVEMERSRETGMCCGAGGGLMWMEEETGNRINVARTEQALAVNPSVISSGCPYCLTMLGDGTKAKEAEDQVKTYDVVELLAQSVLGADLKMGEKQEGHHHHHH	not soluble
